Laboratory results published in article PMC2908316 (2009).

B1: RGS4 (protein)
chain: MCKGLAGLPASCLRSAKDMKHRLGFLLQKSDSCEHNSSHNKKDKVVICQRVSQEEVKKWAESLENLISHECGLAAFKAFLKSEYSEENIDFWISCEEYKKIKSPSKLSPKAKKIYNEFISVQATKEVNLDSCTREETSRNMLEPTITCFDEAQKKIFNLMEKDSYRRFLKSRFYLDLVNPSSCGAEKQKGAKSSADCASLVPQCA
B2: RGS16 (protein)
chain: MCRTLAAFPTTCLERAKEFKTRLGIFLHKSELGCDTGSTGKFEWGSKHSKENRNFSEDVLGWRESFDLLLSSKNGVAAFHAFLKTEFSEENLEFWLACEEFKKIRSATKLASRAHQIFEEFICSEAPKEVNIDHETHELTRMNLQTATATCFDAAQGKTRTLMEKDSYPRFLKSPAYRDLAAQASAASATLSSCSLDEPSHT
B3: RGS7 (protein)
chain: MAQGNNYGQTSNGVADESPNMLVYRKMEDVIARMQDEKNGIPIRTVKSFLSKIPSVFSGSDIVQWLIKNLTIEDPVEALHLGTLMAAHGYFFPISDHVLTLKDDGTFYRFQTPYFWPSNCWEPENTDYAVYLCKRTMQNKARLELADYEAESLARLQRAFARKWEFIFMQAEAQAKVDKKRDKIERKILDSQERAFWDVHRPVPGCVNTTEVDIKKSSRMRNPHKTRKSVYGLQNDIRSHSPTHTPTPETKPPTEDELQQQIKYWQIQLDRHRLKMSKVADSLLSYTEQYLEYDPFLLPPDPSNPWLSDDTTFWELEASKEPSQQRVKRWGFGMDEALKDPVGREQFLKFLESEFSSENLRFWLAVEDLKKRPIKEVPSRVQEIWQEFLAPGAPSAINLDSKSYDKTTQNVKEPGRYTFEDAQEHIYKLMKSDSYPRFIRSSAYQELLQAKKKSGNSMDRRTSFEKFAQNVGRNIPIFPCHKNCTPTLRASTNLL
B4: RGS8 (protein)
chain: MAALLMPRRNKGMRTRLGCLSHKSDSCSDFTAILPDKPNRALKRLSTEEATRWADSFDVLLSHKYGVAAFRAFLKTEFSEENLEFWLACEEFKKTRSTAKLVSKAHRIFEEFVDVQAPREVNIDFQTREATRKNLQEPSLTCFDQAQGKVHSLMEKDSYPRFLRSKMYLDLLSQSQRRLS

Biological target: Gαo (Homo sapiens, UniProt P09471)
Sequence (P09471 2-354): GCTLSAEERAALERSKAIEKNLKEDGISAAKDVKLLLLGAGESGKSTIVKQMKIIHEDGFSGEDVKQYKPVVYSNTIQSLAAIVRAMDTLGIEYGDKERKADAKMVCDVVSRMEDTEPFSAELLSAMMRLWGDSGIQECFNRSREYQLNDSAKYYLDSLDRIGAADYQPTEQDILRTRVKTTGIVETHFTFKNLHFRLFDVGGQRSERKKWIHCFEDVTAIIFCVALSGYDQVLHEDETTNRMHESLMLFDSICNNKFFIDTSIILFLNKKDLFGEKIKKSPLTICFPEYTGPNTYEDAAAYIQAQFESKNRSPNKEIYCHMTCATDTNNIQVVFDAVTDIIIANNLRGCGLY
Assay: flow cytometry protein interaction assay

Kd, < 100 nM:
B1
B2
B3
B4
